Source: US20100239633A1

Biological target: Human FcγRIIIa (human) (UniProt P08637)
Assay: SPR (Biacore), FcγRIIIa immobilized; 1:1 with mass transfer fit

Ka [M⁻¹] | Kd [nM] | Substance
2.1e+08 | 4.7 | mouse IgG2a (antibody)
1.8e+07 | 5500 | G-011 (from UniProt P01854 104-210)
